Experimental data from patent US7456001B2, “Lipoxygenase” (Novozymes A/S, priority 2000, dated 2008).

Assays:
lipoxygenase = lipoxygenase (Gaeumannomyces tritici, UniProt Q8X150); assay: Determination of substrate specificity (Michaelis-Menten kinetics, hydroperoxide formation at 234 nm); conditions: lipoxygenase produced as in Example 4, standard assay, 25° C., pH 7.0
Description: (§1) The lipoxygenase activity was determined spectrophotometrically at 25° C. by monitoring the formation of hydroperoxides. […] The enzyme was typically diluted sufficiently to ensure a turn-over of maximally 10% of the added substrate within the first minute. The absorbance at 234 nm was followed and the rate was estimated from the linear part of the curve. One unit causes an increase in absorbance at 234 nm of 0.001/min.
(§2) The substrate specificity of the lipoxygenase was studied using the standard assays condition with a number of different compounds as substrate. All substrates were produced as dispersions with 0.2%(v/v) Tween20. The amount of compound added to make up these stock solutions was determined by mass, since viscosity made accurate measurement of volume impossible. The limiting rate constant and the specificity constant were determined by varying the amount of substrate added in the assays. The resulting rates were plotted against the concentration of substrate used. Finally, the plots were fitted by non-linear least squares regression to the theoretical hyperbolic curve of the Michaelis-Menten equation. The cis-trans-conjugated hydro(pero)xy fatty acids were assumed to have a molecular extinction coefficient of 23,000 M^−1 cm^−1.
(§3) The activity of lipoxygenase produced as in Example 4 was tested on various substrates as described above. The results are expressed as kcat (or Vmax), KM and kcat/KM according to the Michaelis-Menten equation:

[1] = system: CCCCC/C=C\C/C=C\CCCCCCCCO; assay: purified protein, by the assay type; conditions: other: lipoxygenase produced as in Example 4, standard assay, 25° C., pH 7.0
Description: as §1, §2, §3

[2] = system: CCCCC/C=C\C/C=C\C/C=C\C/C=C\CCCC(=O)O; assay: purified protein, by the assay type; conditions: other: lipoxygenase produced as in Example 4, standard assay, 25° C., pH 7.0
Description: as §1, §2, §3

[3] = system: CCCCC/C=C\C/C=C\CCCCCCCC(=O)OC; assay: purified protein, by the assay type; conditions: other: lipoxygenase produced as in Example 4, standard assay, 25° C., pH 7.0
Description: as §1, §2, §3

lipoxygenase, sequence (Q8X150 17-618): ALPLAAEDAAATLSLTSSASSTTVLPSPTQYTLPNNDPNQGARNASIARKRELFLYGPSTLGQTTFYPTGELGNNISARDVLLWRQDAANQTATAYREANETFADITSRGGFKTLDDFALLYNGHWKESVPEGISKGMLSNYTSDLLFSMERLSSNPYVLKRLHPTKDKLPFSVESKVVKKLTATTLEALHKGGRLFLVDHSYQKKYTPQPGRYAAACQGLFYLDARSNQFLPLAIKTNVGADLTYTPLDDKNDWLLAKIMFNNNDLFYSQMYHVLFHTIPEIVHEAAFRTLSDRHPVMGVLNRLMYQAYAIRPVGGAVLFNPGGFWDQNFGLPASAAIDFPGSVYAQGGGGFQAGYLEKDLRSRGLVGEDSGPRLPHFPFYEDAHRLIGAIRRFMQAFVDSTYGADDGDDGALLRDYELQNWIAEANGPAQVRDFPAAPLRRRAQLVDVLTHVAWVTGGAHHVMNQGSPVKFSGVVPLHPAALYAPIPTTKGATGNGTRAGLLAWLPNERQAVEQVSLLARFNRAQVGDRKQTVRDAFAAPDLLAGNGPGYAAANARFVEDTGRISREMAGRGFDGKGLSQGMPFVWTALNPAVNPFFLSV

Molecule	kcat (lipoxygenase; kcat (or Vmax)) [micro-mol/min/mg]	Km (lipoxygenase) [µM]	Km [1] [µM]	Km [2] [µM]	Km [3] [µM]
CCCCC/C=C\C/C=C\CCCCCCCC(=O)O [Linoleic acid]	5.63	6.8			
lipoxygenase (Gaeumannomyces tritici)			3.4	17.5	164
